Experimental findings from patent publication US7906628B2, “Targeting proteins to deliver therapeutic or diagnostic reagents” (The Board of Regents, The University of Texas System, priority 2002, dated 2011) are described below.

For test [1], the system named is human umbilical endothelial cells (HUVEC). The experiment in a line: Endothelial tube assay. To be noted: supernatant from plasmid-transfected 293T cells; FIGS. 2A-2D. The test is classed as cell-based. On the procedure: Endothelial tube assay: Matrigel (Collaborative Biomolecules, Bedford, Mass.) was added (50 μl) to each well of a 96-well plate and allowed to polymerize. A suspension of 5,000 human umbilical endothelial cells (HUVEC) in EGM-2 medium without antibiotic was passed into each well coated with matrigel. The cells were treated with supernatants collected from different plasmid (endostatin, endostatin-CD, and CD) transfected 293T cells. All assays were performed in triplicate. Cell were incubated for 12-24 hr at 37° C. and viewed using a microscope. The cells were then photographed. Five fields were viewed, and tubes were counted and averaged.

In the next test the test system is HUVECs. The experiment in a line: Migration assay (VEGF-induced chemotaxis, Boyden chamber). The following applies: supernatant from plasmid-transfected 293T cells; 10 ng/ml VEGF as chemotactant; FIGS. 2E-2H. It counts as cell-based, human. How it is done:
After trypsinizing, washing, and diluting cells in M199 medium containing 0.5% FBS, 10,000 cells were seeded on the upper chamber wells, together with supernatant collected from 293T transfected with different plasmid (endostatin, endostatin-CD, and CD). M199 medium containing 2% FBS plus 10 ng/ml VEGF was placed in the lower chamber as a chemotactant. The cell-containing compartments were separated from the chemotactant with polycarbonate filter of 8 um pore size. The chamber was incubated at 37° C. for 6-8 hr. After discarding the non-migrated cells and washing the upper wells with PBS, the filters were scraped with a plastic blade, fixed in 4% formaldehyde in PBS, stained with DAPI fluorescent stain and placed on a glass slide. By using a fluorescent high power field, several independent homogenous images were recorded. Five fields were viewed, and […] were counted and averaged. All assays were performed in triplicate.

B1: endostatin: endogenous angiogenesis inhibitor, 18 KD, used as comparator (protein, listed as Homo sapiens)
chain: IVNLKDELLFPSWEALFSGSEGPLKPGARIFSFDGKDVLRHPTRPQKSVWHGSDPNGRRLTESYCETWRTEAPSATGQASSLLGGRLLGQSAASSHHAYIVL
Turning to B1, the “HUVEC cell tube formation” value in test [1] is “inhibitory effect”. In addition, the HUVEC cell migration entry in the test with HUVECs is “inhibitory effect”.
